Measured values: US20130209454A1
Numbering of substitutions follows the chain as printed. Names and notes keep the numbering of the source.

B1: NIH45-46^G54W(HC), S28Y(LC) (antibody, V domains shown)
VH: QVRLSQSGGQMKKPGESMRLSCRASGYEFLNCPINWIRLAPGRRPEWMGWLKPRWGAVNYARKFQGRVTMTRDVYSDTAFLELRSLTSDDTAVYFCTRGKYCTARDYYNWDFEHWGRGAPVTVSS
VL: EIVLTQSPATLSLSPGETAIISCRTSQYGSLAWYQQRPGQAPRLVIYSGSTRAAGIPDRFSGSRWGADYNLSISNLESGDFGVYYCQQYEFFGQGTKVQVDI
B2: NIH45-46^G54W (antibody, V domains shown)
VH: B1 VH
VL: B1 VL with Y28S
B3: NIH45-46^G54W IgG (antibody, name in Kabat numbering, V domains shown)
VH: B1 VH
VL: B1 VL with Y28S
B4: NIH45-46^G54F IgG (antibody, name in Kabat numbering, V domains shown)
VH: B1 VH with W55F
VL: B1 VL with Y28S
B5: NIH45-46^G54W(HC) S28Y(LC) (antibody, V domains shown)
VH: B1 VH
VL: B1 VL

Experiments:
[1] = target: HIV-1 Env of strain Ce1086_B2 (HIV-1); assay: cell-based or functional assay
[2] = target: HIV-1 Env of strain 6240_08_TA5_4622 (HIV-1); assay: cell-based or functional assay
[3] = target: HIV-1 Env of strain 6952.v1.c20 (HIV-1); assay: cell-based or functional assay
[4] = target: HIV-1 Env of strain 1012_11_TC21_3257 (HIV-1); assay: cell-based or functional assay
[5] = target: HIV-1 Env of strain X1632_S2_B10 (HIV-1); assay: cell-based or functional assay
[6] = target: HIV-1 Env of strain C4118.c09 (HIV-1); assay: cell-based or functional assay
[7] = target: HIV-1 Env of strain BJOX025000.01.1 (HIV-1); assay: cell-based or functional assay
[8] = target: Env of HIV-1 strain 0260.v5.c36 (HIV-1); assay: cell-based or functional assay
[9] = target: Env of HIV-1 strain CNE8 (HIV-1); assay: cell-based or functional assay
[10] = target: Env of HIV-1 strain REJO4541.67 (HIV-1); assay: cell-based or functional assay
[11] = target: Env of HIV-1 strain SC05_8C11_2344 (HIV-1); assay: cell-based or functional assay
[12] = target: Env of HIV-1 strain C4118.c09 (HIV-1); assay: cell-based or functional assay
[13] = target: Env of HIV-1 strain 0815.v3.c3 (HIV-1); assay: cell-based or functional assay
[14] = target: Env of HIV-1 strain 89-F1_2_25 (HIV-1); assay: cell-based or functional assay
[15] = target: Env of HIV-1 strain 6480.v4.c25 (HIV-1); assay: cell-based or functional assay
[16] = target: Env of HIV-1 strain P1981_C5_3 (HIV-1); assay: cell-based or functional assay
[17] = target: Env of HIV-1 strain 6244_13_B5_4576 (HIV-1); assay: cell-based or functional assay
[18] = target: Env of HIV-1 strain Ce1172_H1 (HIV-1); assay: cell-based or functional assay
[19] = target: Env of HIV-1 strain ZM197M.PB7 (HIV-1); assay: cell-based or functional assay
[20] = target: Env of HIV-1 strain Du156.12 (HIV-1); assay: cell-based or functional assay
[21] = target: Env of HIV-1 strain 6540.v4.c1 (HIV-1); assay: cell-based or functional assay
[22] = target: Env of HIV-1 strain Q842.d12 (HIV-1); assay: cell-based or functional assay
[23] = target: Env of HIV-1 strain BJOX015000.11.5 (HIV-1); assay: cell-based or functional assay
[24] = target: Env of HIV-1 strain HIV-0013095-2.11 (HIV-1); assay: cell-based or functional assay
[25] = target: Env of HIV-1 strain CAP210.2.00.E8 (HIV-1); assay: cell-based or functional assay
[26] = target: Env of HIV-1 strain 231966.c02 (HIV-1); assay: cell-based or functional assay
[27] = target: Env of HIV-1 strain 62357_14_D3_4589 (HIV-1); assay: cell-based or functional assay
[28] = target: HIV-1 Env of strain Du172.17 (HIV-1); assay: cell-based or functional assay
[29] = target: YU2 gp160 point mutant at 458gp120 (HIV-1) (UniProt P35961); assay: cell-based or functional assay
[30] = target: HIV-1 strain YU2 gp160 (gp120) (HIV-1) (UniProt P35961)
[31] = target: YU2 gp160 point mutant at 458gp120 (HIV-1) (UniProt P35961)
[32] = target: YU2 gp160 point mutant at 279gp120 (HIV-1) (UniProt P35961)
[33] = target: Env of HIV-1 strain X1632_S2_B10 (HIV-1); assay: cell-based or functional assay

| Binder | IC50, pseudovirus neutralization [1] | IC50, pseudovirus neutralization [2] | IC50, pseudovirus neutralization [3] | IC50, pseudovirus neutralization [4] | IC50, pseudovirus neutralization [6] | IC50, pseudovirus neutralization [7] | IC80 [8] | IC80 [9] | IC80 [10] | IC80 [11] | IC80 [12] | IC80 [13] | IC80 [14] | IC80 [15] | IC80 [16] | IC80 [17] | IC80 [18] | IC80 [19] | IC80 [20] | IC80 [21] | other results |
| --- | --- | --- | --- | --- | --- | --- | --- | --- | --- | --- | --- | --- | --- | --- | --- | --- | --- | --- | --- | --- | --- |
| B1 | 0.004 µg/mL | 0.173 µg/mL | 0.007 µg/mL | 0.001 µg/mL | 0.011 µg/mL | 0.031 µg/mL | – | – | – | – | – | – | – | – | – | – | – | – | – | – | IC50, pseudovirus neutralization [5]: 0.001 µg/mL |
| B2 | 0.019 µg/mL | 0.11 µg/mL | 0.001 µg/mL | 0.001 µg/mL | 0.01 µg/mL | 0.014 µg/mL | 0.399 µg/mL | 0.24 µg/mL | 0.013 µg/mL | 0.2 µg/mL | 0.087 µg/mL | 0.003 µg/mL | > 50 µg/mL | 0.021 µg/mL | 0.07 µg/mL | 0.095 µg/mL | > 50 µg/mL | 0.18 µg/mL | 0.005 µg/mL | > 50 µg/mL | IC80 [22]: 0.025 µg/mL; IC80 [23]: 0.239 µg/mL; IC80 [24]: 0.027 µg/mL; IC80 [25]: > 50 µg/mL; IC80 [26]: 0.11 µg/mL; IC80 [27]: 0.07 µg/mL |
| B3 | – | – | – | – | – | – | – | – | – | – | – | – | – | – | – | – | – | – | – | – | neutralization IC50 [28]: 0.9 µg/mL; decrease of neutralization potency against YU2 [29]: > 1500 fold; IC50, pseudovirus neutralization (TZM-bl, luciferase) [30]: 0.008 µg/mL; IC50, pseudovirus neutralization (TZM-bl, luciferase) (G459D (HIV-1)): 0.01 µg/mL; IC50, pseudovirus neutralization (TZM-bl, luciferase) (N280Y (HIV-1)): > 50 µg/mL; IC50, pseudovirus neutralization (TZM-bl, luciferase) (R456W (HIV-1)): 6 µg/mL; IC50, pseudovirus neutralization (TZM-bl, luciferase) (N280D (HIV-1)): > 50 µg/mL; IC50, pseudovirus neutralization (TZM-bl, luciferase) [31]: 18 µg/mL; IC50, pseudovirus neutralization (TZM-bl, luciferase) [32]: > 50 µg/mL |
| B4 | – | – | – | – | – | – | – | – | – | – | – | – | – | – | – | – | – | – | – | – | neutralization IC50 [28]: 16 µg/mL |
| B5 | – | – | – | – | – | – | 0.084 µg/mL | 0.156 µg/mL | 0.01 µg/mL | 0.219 µg/mL | 0.058 µg/mL | 0.004 µg/mL | > 50 µg/mL | 0.058 µg/mL | 0.045 µg/mL | 0.109 µg/mL | > 50 µg/mL | 0.274 µg/mL | 0.024 µg/mL | > 50 µg/mL | IC80 [22]: 0.017 µg/mL; IC80 [33]: 0.007 µg/mL; IC80 [23]: 0.308 µg/mL; IC80 [24]: 0.017 µg/mL; IC80 [25]: 9.05 µg/mL; IC80 [26]: 0.076 µg/mL; IC80 [27]: 0.084 µg/mL |
